Assay results taken from patent publication US11510992 (dated 2022).

B1: human Fcγ RIIb (receptor, UniProt P31994 43-217, looked up)
chain: TPAAPPKAVLKLEPQWINVLQEDSVTLTCRGTHSPESDSIQWFHNGNLIPTHTQPSYRFKANNNDSGEYTCQTGQTSLSDPVHLTVLSEWLVLQTPHLEFQEGETIVLRCHSWKDKPLVKVTFFQNGKSKKFSRSDPNFSIPQANHSHSGDYHCTGNIGYTLYSSKPVTITVQAP
B2: murine Fcγ RIIb (receptor, mouse, UniProt P08101 30-210, looked up)
chain: THDLPKAVVKLEPPWIQVLKEDTVTLTCEGTHNPGNSSTQWFHNGRSIRSQVQASYTFKATVNDSGEYRCQMEQTRLSDPVDLGVISDWLLLQTPQLVFLEGETITLRCHSWRNKLLNRISFFHNEKSVRYHHYSSNFSIPKANHSHSGDYYCKGSLGRTLHQSKPVTITVQGPKSSRSLP
notes: also called mouse FcγR2B/CD32b

Molecular target: Conjugate 45b (human, UniProt P0DOX5 203-448 = IgG part)
Experiment: ELISA

Row | Binder | binding result
1 | B1 | binds
2 | B2 | binds
